Drawing on US20210032330A1, this text covers Kd for seven molecules.

Changes are numbered by the printed parent chain.

As usually defined, the Kd is the concentration at which binding is half-saturated.

The assay concerns the target cynomolgus TIM-3 (cynomolgus). Put plainly: BLI (OCTET Red96), mAb on anti-mouse Fc biosensor, antigen in solution, 1:1 model.

B1: anti-TIM-3 monoclonal antibody 18-N1-A (antibody, V domains shown)
VH: QVQLQQPGAELVRPGVSVKLSCKASGYTFTSYWMHWIKQRPEQGLERIGEINPSNGGTNYNEKFKNKATLTVDKSSSTAYMQLSSLTSEDSAVYYCARSYYTYDAIDYWGQGTSVTVSS
VL: DIVMSQSPSSLAVSAGEKVTMSCKSSQSLLNSRTRKNYLAWYQQKPGQSPKLLIYWASTRESGVPDRFTGSGSGTDFTLTISSVQAEDLAVYYCKQSYNLYTFGGGTKLEIK
Regarding B1, the Kd came to 14 nM.

B2: anti-TIM-3 monoclonal antibody 10-M21-A (antibody, V domains shown)
VH: DVQLQESGPTLVKPSQTLSLTCSVTGDSITSGYWNWIRKFPGNKLEYMGYISYSGSTYYNPSLKSRISIIRDTSKNQYYLQLNSVTTEDTATYYCVSGNHFDYWGQGTTLTVSS
VL: DIQMTQSPSSLSASLGGKVTITCKASQDINRYIAWYQHKPGKGPRLLIHYTSTLQPGIPSRFSGSGSGRDYSFSISNLEPEDIATYYCLQYDNLLFTFGSGTKLEIK
For B2, the Kd was found to be 7.5 nM. Compared with the last molecule, the Kd is about 1.9-fold lower.

B3: anti-TIM-3 monoclonal antibody 5-K4-A (antibody, V domains shown)
VH: EVQLQQSGPELVKTGASVKISCKASGYSFTAYYIHWVKQSHGKSLEWIGHISCFNGATSYNQKFKGKATFTVDTSSSTAYMQFNSLTSEDSAVYYCARRGDFDRPEFAYWGQGTLVTVSA
VL: DIVLTQSPASLAVSLGQRATISCRASESVEYYGTSLMQWYQQKPGQPPKLLIYAASNVESGVPARFSGSGSGTDFSLNIHPVEEDDIAMYFCQQSRKVPWTFGGGTKLEIK
Molecule B3 showed a Kd of 6.7 nM. This Kd and that of the molecule before are within 1.5-fold of each other.

B4: anti-TIM-3 monoclonal antibody 6-I13-A (antibody, V domains shown)
VH: EVQLQQSGPELEKPGASVKISCKASGYSFTGYNMNWVKQSNGKSLEWIGNIDPYYGVTSYNQKFKGKATLTVDKSSSTAYMQLKSLTSEDSAVYYCASYSLTYDGYYPFAYWGQGTLVTVSA
VL: DIVLTQSPASLAVSLGQRATISCRASKSVSTSGYSYMHWYQQKPGQPPKLLIYLASNLESGVPARFSGSGSGTDFTLNIHPVEEEDAATYYCQHSRELPYTFGGGTKLEIK
As for B4, the Kd came out at 5.2 nM.

B5: anti-TIM-3 monoclonal antibody 10-O15-A (antibody, V domains shown)
VH: QVQLQQSGADLVRPGASVKLSCKALGYTFTDYEMHWVKQTPVHGLEWIGAIHPGSGGTAYNQKFKGKATLTADKSSSTAYMELSSLTSEDSAVYFCSRSYYRYTGYFDVWGAGTTVTVSS
VL: B4 VL with T31A, I79V, Y100F, G104S
B5 yielded a Kd of 2.9 nM.

B6: anti-TIM-3 monoclonal antibody 16-L3-A (antibody, V domains shown)
VH: QVQLQQSGPELVKPGASVKMSCKASGYTFTSYYIHWVKQRPGQGLEWIGWIYPGDGSTKYNEKFKGKTTLTADKSSSTAYMLLSSLTSEDSAIYFCATDRYDVAYWGQGTLVTVSA
VL: EIVLTQSPALMAASPGEKVTITCSVSSSISSSNLHWYQQKSETSPKPWIYGTSNLASGVPVRFSGSGSGTSYSLTISSMEAEDAATYYCQQWSSYPLTFGAGTKLELK
In turn, B6 returned a Kd of 6.5 nM.

B7: anti-TIM-3 monoclonal antibody 16-K5-A (antibody, V domains shown)
VH: QVQLQQSGAELVKPGASVKLSCKASGYTFTSSDINWVRQRPEQGLEWIGWIFPGDGSTKYNEKFKGKATLTTDKSSSTAYMQLSRLTSEDSAVYFCARGLDYWGQGTTLTVSS
VL: DIKMTQSPSSMYASLGERVTITCKASQDINSYLGWFQQKPGKSPKTLIYRADRLVDGVPSRFSGSGSGQDYSLTISSLEYEDMGIYYCLQYDEFPLTFGAGTKLELK
For the molecule B7, the Kd came out at 6.4 nM.
